US20250313631A1 (HUMMINGBIRD BIOSCIENCE PTE, published 2025)
Read-outs that look alike come from different tables or passages of the source.

T1: recombinant mouse VISTA (His-tagged) (mouse, UniProt Q9D659 33-191)
T1 construct: also called murine VISTA; mVISTA
T1 sequence (looked up): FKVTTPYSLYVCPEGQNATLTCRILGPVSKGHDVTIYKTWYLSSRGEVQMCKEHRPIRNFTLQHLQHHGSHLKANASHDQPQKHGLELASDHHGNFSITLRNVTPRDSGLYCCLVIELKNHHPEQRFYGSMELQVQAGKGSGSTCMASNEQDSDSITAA

T2: human B7H3 (human, UniProt Q5ZPR3 29-461, limits assumed)
T2 construct: also called CD276
T2 sequence (looked up): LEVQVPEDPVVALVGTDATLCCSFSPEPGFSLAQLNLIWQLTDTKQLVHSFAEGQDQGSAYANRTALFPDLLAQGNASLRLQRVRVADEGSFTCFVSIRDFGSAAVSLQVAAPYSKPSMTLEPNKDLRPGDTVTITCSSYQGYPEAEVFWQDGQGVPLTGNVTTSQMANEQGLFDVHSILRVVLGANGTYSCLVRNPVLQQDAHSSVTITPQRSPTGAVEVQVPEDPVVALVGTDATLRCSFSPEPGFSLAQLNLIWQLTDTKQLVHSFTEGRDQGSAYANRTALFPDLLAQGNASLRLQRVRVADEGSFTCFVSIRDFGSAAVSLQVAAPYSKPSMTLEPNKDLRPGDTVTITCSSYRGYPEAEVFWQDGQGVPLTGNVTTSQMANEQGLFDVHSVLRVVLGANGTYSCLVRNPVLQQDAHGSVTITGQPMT

T3: human B7H6 (human, UniProt Q68D85 25-262)
T3 construct: also called NCR3LG1
T3 sequence (looked up): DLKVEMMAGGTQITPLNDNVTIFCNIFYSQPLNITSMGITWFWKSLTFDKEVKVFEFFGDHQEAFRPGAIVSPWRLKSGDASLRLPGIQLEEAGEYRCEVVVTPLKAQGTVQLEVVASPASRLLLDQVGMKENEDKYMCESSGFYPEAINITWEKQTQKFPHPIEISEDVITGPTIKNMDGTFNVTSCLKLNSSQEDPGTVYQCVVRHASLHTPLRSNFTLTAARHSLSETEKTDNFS

T4: human B7H4 (human, UniProt Q7Z7D3 25-258, limits assumed)
T4 construct: also called VTCN1
T4 sequence (looked up): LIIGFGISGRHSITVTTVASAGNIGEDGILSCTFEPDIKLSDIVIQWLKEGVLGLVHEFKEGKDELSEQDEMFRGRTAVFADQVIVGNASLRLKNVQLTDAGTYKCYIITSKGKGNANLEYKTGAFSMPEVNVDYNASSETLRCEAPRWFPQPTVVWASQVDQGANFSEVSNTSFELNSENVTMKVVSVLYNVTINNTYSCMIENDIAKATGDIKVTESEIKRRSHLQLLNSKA

T5: human B7H7 (human, UniProt Q9UM44 23-344)
T5 construct: also called HHLA2
T5 sequence (looked up): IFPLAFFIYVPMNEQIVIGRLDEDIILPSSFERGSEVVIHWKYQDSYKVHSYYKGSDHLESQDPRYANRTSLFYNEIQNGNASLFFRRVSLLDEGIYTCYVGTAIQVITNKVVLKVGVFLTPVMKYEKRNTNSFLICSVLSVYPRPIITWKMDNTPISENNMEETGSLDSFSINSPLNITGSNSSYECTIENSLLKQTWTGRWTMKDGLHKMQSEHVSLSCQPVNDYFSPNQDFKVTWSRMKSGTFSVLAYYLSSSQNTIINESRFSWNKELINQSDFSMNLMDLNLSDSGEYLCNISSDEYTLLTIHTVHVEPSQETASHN

T6: recombinant rat VISTA (His-tagged) (rat, UniProt A0ABK0L5H3 33-192)
T6 sequence: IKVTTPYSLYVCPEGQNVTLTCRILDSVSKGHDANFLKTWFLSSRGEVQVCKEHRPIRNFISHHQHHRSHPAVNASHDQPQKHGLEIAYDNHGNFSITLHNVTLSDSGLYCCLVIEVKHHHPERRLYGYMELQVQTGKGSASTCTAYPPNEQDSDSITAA


Legend:
[1] = biological target: T7, recombinant human VISTA (His-tagged) (human, UniProt Q9H7M9 33-194); test: ELISA, plate coated with human VISTA; unit nM from the legend paragraph 697
T7 construct: bought soluble protein (Sino Biological); also called hVISTA; human VISTA polypeptide

[2] = biological target: T1, recombinant mouse VISTA (His-tagged); test: ELISA, plate coated with mouse VISTA; unit nM from the legend paragraph 697
[3] = biological target: T8, human PD-L1 (human, UniProt Q9NZQ7 19-239); test: BLI (Octet), His-tagged human PD-L1 on anti-Penta-HIS biosensor, antibody 500-15.6 nM
T8 construct: captured through a His tag in the BLI experiments; also called hPD-L1; B7H1/PDL-1
Procedure: Finally, the biosensors were incubated for 120 sec in PBS pH 7.2 to obtain the dissociation curves. Kinetic and affinity constants were calculated by global fitting of the association and dissociation data to a 1:1 binding model.

[4] = biological target: T7, recombinant human VISTA (His-tagged); test: ELISA, plate coated with human VISTA
[5] = biological target: T1, recombinant mouse VISTA (His-tagged); test: ELISA, plate coated with mouse VISTA
[6] = biological target: T1, recombinant mouse VISTA (His-tagged); test: ELISA, plate coated with mouse VISTA; unit nM from the legend paragraph 698
[7] = biological target: T7, recombinant human VISTA (His-tagged); test: BLI (Octet), 1:1 global fit, His-tagged human VISTA captured
[8] = biological target: T7, recombinant human VISTA (His-tagged); test: ELISA, plate coated with human VISTA; remark: listed apart in the source
[9] = biological target: T9, recombinant cynomolgus macaque VISTA (His-tagged) (cynomolgus macaque, UniProt A0A7N9IB00 33-194); test: ELISA, plate coated with cyno VISTA
T9 construct: also called cyno VISTA; cynomolgus monkey VISTA

[10] = biological target: T1, recombinant mouse VISTA (His-tagged); test: BLI (Octet), 1:1 global fit, His-tagged mouse VISTA captured
[11] = biological target: T10, human PD-1 (human, UniProt Q15116 25-167); test: ELISA, plate coated with the antigen
[12] = biological target: T11, human CTLA4 (human, UniProt P16410 36-162); test: ELISA, plate coated with the antigen
[13] = biological target: T2, human B7H3; test: ELISA, plate coated with the antigen
[14] = biological target: T3, human B7H6; test: ELISA, plate coated with the antigen
[15] = biological target: T4, human B7H4; test: ELISA, plate coated with the antigen
[16] = biological target: T5, human B7H7; test: ELISA, plate coated with the antigen
[17] = biological target: T1, recombinant mouse VISTA (His-tagged); test: BLI (Octet), 1:1 global fit, His-tagged mouse VISTA captured; remark: listed apart in the source
[18] = biological target: T7, recombinant human VISTA (His-tagged); test: ELISA, plate coated with human VISTA; unit nM from the legend paragraph 698
[19] = biological target: T6, recombinant rat VISTA (His-tagged); test: ELISA, plate coated with rat VISTA
[20] = biological target: T10, human PD-1; test: ELISA, plate coated with the antigen; remark: listed apart in the source
[21] = biological target: T11, human CTLA4; test: ELISA, plate coated with the antigen; remark: listed apart in the source
[22] = biological target: T2, human B7H3; test: ELISA, plate coated with the antigen; remark: listed apart in the source
[23] = biological target: T3, human B7H6; test: ELISA, plate coated with the antigen; remark: listed apart in the source
[24] = biological target: T4, human B7H4; test: ELISA, plate coated with the antigen; remark: listed apart in the source
[25] = biological target: T5, human B7H7; test: ELISA, plate coated with the antigen; remark: listed apart in the source
[26] = biological target: T7, recombinant human VISTA (His-tagged); test: ELISA, plate coated with human VISTA; remark: listed apart in the source

T10 sequence (Q15116 25-167 limits assumed): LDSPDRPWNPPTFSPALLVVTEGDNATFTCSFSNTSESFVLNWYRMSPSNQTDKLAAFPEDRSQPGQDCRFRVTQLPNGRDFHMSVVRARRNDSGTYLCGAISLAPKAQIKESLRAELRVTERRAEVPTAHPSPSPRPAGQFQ
T8 sequence (Q9NZQ7 19-239 limits assumed): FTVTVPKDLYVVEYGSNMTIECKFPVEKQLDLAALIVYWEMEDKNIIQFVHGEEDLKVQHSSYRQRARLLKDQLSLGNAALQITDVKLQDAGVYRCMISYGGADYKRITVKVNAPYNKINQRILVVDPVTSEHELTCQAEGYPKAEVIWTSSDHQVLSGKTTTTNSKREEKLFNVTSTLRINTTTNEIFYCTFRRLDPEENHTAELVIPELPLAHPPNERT
T11 sequence (P16410 36-162 limits assumed): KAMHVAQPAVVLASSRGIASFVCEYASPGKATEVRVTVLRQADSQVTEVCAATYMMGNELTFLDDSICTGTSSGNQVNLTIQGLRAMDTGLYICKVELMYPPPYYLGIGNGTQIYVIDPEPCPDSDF

Binder	EC50 [1] [pM]	EC50 [2] [pM]	binding result [3]	EC50 [4] [pM]	EC50 [5] [pM]	EC50 [6] [pM]	Kd [7] [pM]	koff [7] [s⁻¹]	kon [7] [M⁻¹ s⁻¹]	EC50 [9] [pM]	Kd [10] [pM]	koff [10] [s⁻¹]	kon [10] [M⁻¹ s⁻¹]	Kd [17] [pM]	koff [17] [s⁻¹]	kon [17] [M⁻¹ s⁻¹]	EC50 [18] [pM]	EC50 [19] [pM]	further results
anti-VISTA clone V4-C28 IgG1 (antibody, V domains shown) VH: QVQLQESGPGLVKPSDTLSLTCTVSGYSITSDYTWNWIRQTPGKGLEWIGHITYSGSVSYNPSLRSRVTISRDTSKNQFSLKLSSVTAADTATYSCARALYYPWYFDVWGTGTTVTVSS VL: EIVLTQSPATLSLSPGERATLSCRASSSVGYIHWYQQKPGQAPRPLIYATSYRATGIPARFSGSGSGTDNTLTISSLEPEDSAVYYCQQWSSYPPITFGGGTKLEVKR	1.5	4.5	no binding (tested: 500 nM)	34.6	36.5	64	< 1	< 1e-07	507000	36.7	170	8.2e-05	475000	489	0.00025	520000	53	217	EC50 (read off the curve) [8]: ~30 pM; binding result [11]: no binding (tested: log -7.5 M); binding result [12]: no binding (tested: log -7.5 M); binding result [13]: no binding (tested: log -7.5 M); binding result [14]: no binding (tested: log -7.5 M); binding result [15]: no binding (tested: log -7.5 M); binding result [16]: no binding (tested: log -7.5 M)
anti-VISTA clone V4-C30 IgG1 (antibody, V domains shown) VH: QVQLQESGPGLVKPSDTLSLTCTVSGYSITSDYTWNWIRQTPGKGLEWIGHITYSGSVSYNPSLRSRVTISRDTSKNQFSLKLSSVTAADTATYSCARALYYPWYFDVWGTGTTVTVSS VL: EIVLTQSPATLSLSPGERATLSCRASSSVGYIHWYQQKPGQAPRPLIYATYYRATGIPARFSGSGSGTDNTLTISSLEPEDSAVYYCQQWSSYPPITFGGGTKLEVKR	< 0.7	1.3	no binding (tested: 500 nM)	31.8	32.6	123	< 1	< 1e-07	593000	27.2	5	2.8e-06	505000	< 1	< 1e-07	533000	88	206	binding result [20]: no binding (tested: log -7.5 M); binding result [21]: no binding (tested: log -7.5 M); binding result [22]: no binding (tested: log -7.5 M); binding result [23]: no binding (tested: log -7.5 M); binding result [24]: no binding (tested: log -7.5 M); binding result [25]: no binding (tested: log -7.5 M); EC50 (read off the curve) [26]: ~20 pM
